According to patent US20090291083A1, “BARB4 TARGET, ANTIBODY DESIGNATED BARB4, BARB4 RELATED ANTIBODIES, AND METHODS OF MAKING AND USING SAME” (PATRYS LIMITED, priority 2008, published 2009):

Tests used:
[1] = system: lung carcinoma cells (A549); assay: FACS analysis of tumor cell binding; parameters: species or system human; conditions: 20 min on ice
Experimental: (§1) To analyze tumor cell binding, pancreas cancer cells (BXPC-3), stomach cancer cells (23132/87), lung carcinoma cells (A549) and malignant melanoma cells (HTB-69 and CRL-1424) were grown to subconfluency in complete medium, detached with Trypsin/EDTA and incubated on ice for 1 h for recreation. Tumor cells were subsequently incubated on ice with BARB4 antibody (diluted in PBS containing 0.01% sodium azide), or human isotype-matched control antibody (Chrompure human IgG, Dianova, Hamburg, Germany) for 20 min on ice. Following incubation, cells were incubated with a FITC-labeled rabbit anti-human IgG antibody (1:50, Dako, Germany) for 20 min on ice, and cells were analyzed by flow cytometry (FACScan; Becton Dickinson, USA).

[2] = system: pancreas cancer cells (BXPC-3); assay: FACS analysis of tumor cell binding; parameters: species or system human; conditions: 20 min on ice
Experimental: as §1

[3] = system: malignant melanoma cells (CRL-1424); assay: FACS analysis of tumor cell binding; conditions: 20 min on ice
Experimental: as §1

[4] = system: malignant melanoma cells (HTB-69); assay: FACS analysis of tumor cell binding; conditions: 20 min on ice
Experimental: as §1

[5] = system: stomach cancer cells (23132/87); assay: FACS analysis of tumor cell binding; conditions: 20 min on ice
Experimental: as §1

[6] = system: BXPC-3 cells transfected with TAF 15 siRNA; assay: FACS analysis after TAF 15 siRNA knockdown; type: binding, human; conditions: BARB4 300 μg/ml
Experimental: Before transfection, 24-well plates were inoculated with 0.5×10^4 BXPC-3 cells in growth medium (RPMI 1640 supplemented with […] and 1% (V/V) glutamine). The cells were incubated at 37° C. and a 7% CO2 atmosphere over night to reach a confluence of 50 to 70% the following day. 60 minutes prior to transfection, the medium was carefully aspirated from the wells and 250 μl (300 μl for nontransfected cells) fresh growth medium was added. For each well 50 μl transfection solution was prepared. First […] serum-free OptiMEM® I+GlutaMAX™-I (1×) medium (Invitrogen, Karlsruhe) supplemented with 0.5 μl siLentFect™Lipid Reagent (Biorad, München) was mixed. Afterwards 25 μl serum-free medium containing siGENOME SMARTpool siRNA (Dharmacon, Lafayette, USA) was prepared to achieve a final concentration of 100 nM siRNA. Both solutions were prepared separately. After five minutes they were added together and mixed by pipetting. […]
FACS assays were done with transfected cells. […] At least 200 μl FACS buffer was added and cells were analyzed by flow cytometry (FACScan; Becton Dickinson, San Jose, Calif.) using WinMDI software. […]
Mouse anti-human CD55 antibody (DAF; 1:1000; Acris, Hiddenhausen) was used to control protein expression of other cell surface membrane proteins. […] The cells were analyzed by flow cytometry (FACScan, Becton Dickinson, San Jose) and evaluated with WinMDI software.

B1: BARB4: human IgG antibody produced by hybridoma DSMZ Deposit No. DSM ACC2876; heavy chain SEQ ID NOs:1, 3, 5, 7, light chain SEQ ID NO:9 (antibody, V domains shown)
VH: QVQLVESGGGVVQPGRSLRLSCAASGFRFTTHGMHWVRQAPGKGLEWVAVISYNGRNKYYADYVNGRFTISRDDSRDTVFLQMNSLRPEDTAMYYCAKVRGDGYGDYGYFDYWGHGTLVSVSS
VL: QSALTQPRSVSGSPGQSVTISCTGTYNYVSWYQQHPGKAPKLMIFDVSRRSSGVPDRFSGSKSGNTASLTISGLQAEDEADYYCCSYGGTYLYVFGTGTTVTVLGQ
tumor cell binding (FACS) [1]: binds | tumor cell binding (FACS) [2]: binds | tumor cell binding (FACS) [3]: binds | tumor cell binding (FACS) [4]: binds | tumor cell binding (FACS) [5]: binds | FACS binding to cells treated with siRNA against human TAF15 mRNA ([6]; 48 h after transfection): clearly reduced binding | FACS binding to untreated cells and cells treated with unrelated siRNA (negative control) ([6]; after 48 h): binds
